According to the domain aggregation screens of Martell et al. (2025):

Assay: soluble fraction after stress (log2 fold change); higher = more stays soluble; pooled small domains, quantitative proteomics
Conditions: stress: 75 degC
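Also: 20 min heating vs room temperature control held 20 min.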

Sequence | soluble fraction (log2)
HMITNLEPFKDFVRGFSGLHLEGVGQEKLAAALDERIRKTGSANERDYLQLIMEDVAERLKLINILT | -0.627
HMITPAARLRALKIRLSVDEVAQIVQRLVNGETVYQIGKPDTGGHAKATVGKINALRLAGQLHFL | -1.45
HMITTLLVENLQDVGMRLDHYLVYNLIKYSRSHIQSFIRSGDIRVNGKKVKTGYSLELKDLIHIEMP | -3.66
HMITVPKVINMSETQARQTLDALGLNVTLSATQVMNDKIPYGYVAAQSYSAGKEVPAGTTIELTMSIGL | -2.03
HMIVDYPSFVGKTKQELEKWAKENNIIIRYRQLSVTASDKVKAQLPATTTYKRIMKGSSIEVELEL | -2.44
HMIVIMKAKAEEEDVNRVIDTIQSLGLRTQLNLGAERMVVAVIGDISKIGEDNFFRIRAMKGVENTVFVSK | -2.12
HMIVMPELRGKDLKEAERLLSSHNLRYELVDSVYDKSLAPGVVVEMVPQSGNTVKPGRIIFLSINA | -0.982
HMIVNTTRAPYLLGETEQDAMRLARQAGLVPEIVRQSSAEPAGTVILQSHDFDYRMRRGSVILITVSTGPL | -2.84
HMIVPPAIPFRALGIFGPRDRPIVTFEDGPRLINAREGDVLDGRFILRRVGRESVDFAFVGLPPEITRRIP | -0.571
HMIVSEYIIIGGDKKEYGPVSMGEVGEWVQGGRANGDSKIKKVGTEEWGRLRDFPEFSAYLS | 0.121
HMIVVMARETSTDDLEAIRERIESRGMVAQINLGVERTVIGVMGSIPPDFKDEMELMNGVVEVVMISK | -2.56
HMIVVMKTSASERDLQEVIARIEQFGFATRSIVGSERATVSVLGAPLPDSLQEALERMPGVEEVVRITK | -1.48
HMIYAEDFVGRQGTANTILRPSGRIEIEGEVYDAYTRGEYVEAGERVVVISQEGSTLKVRVV | -0.611
HMIYQEGMQVKYQGKEYVISEIQDYKTYKTIKLDDNEGYLNGFITGSEILSFRNESELDLEI | -0.208
HMIYSKSDLELFGIKKIDVMEENILMLILSEYELDQTPKNILIDEAVRLSKKFGADNAYKFVNATLDTLL | -1.15
HMKAETILAIPENQPERLFPNNEDEARKIYRDLAREWHTDRNKSPKAQDVFSHLSKLYDIVIDRIKNKTWT | 0.194
HMKAGRNTLARQMAILEVLQKDGRALVDDLAARFETTPQTIRKDLSALAEVNQISRFHGGAALVG | -0.159
HMKAKTYTVQYIDEGKIIKEEELEEGSIINAPEVTKEGHTFIGWYEGEEKYDVYEPITRNLILESKNEIN | -0.176
HMKALEGMRTVFTLADLATEPVTVEITVLEAFKYTTTLEIVQRPVLREWMTNPSMLIRVYHDASTAE | 0.0452
HMKAMIIVMKPGADMATISKVLKTIETNGFKPHLSKGEETTVIGVIGDERKLNPDIFSTLEGVERIVPVA | 0.251
HMKASTRELLDFVLSQRGVSTASVAKALGISVQNASTRLKKLSNEGLIIRSEASSLTGGIEFLYS | -0.822
HMKDASEFLGAKGKTITPLRPTGAAVINGEKVDVLAEGEFIPKNAEIVVIKVEGSKIIVRNANN | -0.061
HMKDDLTWSEGLMPNVVGMGLRDAMFMLENSGLRVNYSGRGKVTRQSPQPGVRIKRGATVAIELRL | -1.89
HMKDEHYLYIKARVDNGDYPHLSELKSAEEIELVMPKLLQDGIVEFNKETGEYTIGEDVKAEIERL | 0.12
HMKDESYALGTRLLSHALGKTKLEDLAQEKIDEVVQQSGNKTLEQLLTNIGLGNALSIGIARQLT | 0.345
HMKDGAKYFQLFGLLKNEINRGIYQSGQKIPGENELAEKYGMSRQTVRQALSLLEQESLIERRQGSGTYVR | -0.121

Sequence | soluble fraction (log2)
HMKDGMRVYITYHDSEEEPEKPIGDGTTKGWHTNSTASVVWISQKVAESADLGIWGDPIRIKGEA | 0.0608
HMKDIIVDPQGQYNHPGVPTRIPSSDITMKGVGYPVLGIADNGQKQMMQPGQDYKFPGAKYVDEYPQM | 0.185
HMKDIIVLGAIQAGIKKFDKIQKMTQIEPEELNSILEQLENRGFIQVAEKSGLLGKKIEILVTEKGSNEVD | 0.223
HMKDITAVISKKKGRDYYYIIVSYHLSNGKRVQKWIKTEFSVNGNNKRKLEQKRIEILQEWQNKLV | -1.04
HMKDITMPNVYGLTLEMAEQTLKQSELSIFKAMKINSDTVEEGKVIYTDPKANSIVSGDQEITIYVSDGP | 0.411
HMKDKSEKTKKLIFEAAFKIIREEGFSELSANKIAQVASVSKGVIFHHFSQMDDLYLFMLDTL | 0.23
HMKDLTAIKGVGEFFAKKLSQAGYQSITNLTDVNAKRLQADTGIPLPIAARIIKEAQSLIAET | 0.157
HMKDMWNRIRRARLSAGLSQAALAKETGVRRSAVTQWEKEGGTSPSVANLARIAVVTQVHFEWLATGRGPG | -2.76
HMKDNIRSILEDIPNIGPGRRRALLKHFGSIEAIRRASLEDLIKVDGMNRNAALSIMEYFGM | -0.286
HMKDPSLEHIDALAGKPFQAFPGQDHRAHITAHLNFMSTNMVRNNPSIMAAIQKNILEHISLMAQEQIQL | -1.42
HMKEETYHYTVRYVTDGGDILASYEGKATKDSVFFPEVKTFDGYTAVRGEEPMFHLVSDHAVFQIVYQKNG | -1.17
HMKEFEINSQWKPSLEVYDILSVKGGISRNFIEDSIPEFVLYWRGRGDKSNTWDSKFVQHVKRQWNFYSGL | -2.43
HMKEGGREEMSEIVERYGDERALMANITSVQNLMNNMKWTLDQALDALGIKGKERTLITQQLQ | -0.0628
HMKEIATKSELTYFIQRLLDLLEETNFFNPEERKKAMINHIEAIFRRNNLTLQELNMLHGIITSITR | -2.45
HMKEIGGGPASKFIYYLIKTKHPIEQGDLIGITHLPRRTVQSAIEDLKNQGFIIERNSLDDSRRKVYYPVK | -0.943
HMKEIKRLVELSPGRYFIEGATNIRVFGINGSLLLDTKGETVDLSDLAKGVYLLKTDGVTYKVL | -0.506
HMKEIYIDRGKEALEKELRKRKIPFQEFLSKENTNLLFDTLKIPSHDLEELYLEIGNGKHAASTVVNTVY | 0.391
HMKEKQLMTLDDDLYAFLLKHPGIIQKDIYNHFPYDIKGVIADTLYAWDKTGKIKRTKSGNSYIIYT | -0.228
HMKELAADFSRRIINARTSKGWSQADLGQRMAETINVIKSAESGKPPTDAVVKKFETVLGVILM | -1.06
HMKELLDRIFLHETMRRVSQDATITFSKKVYEVPQKFIGRQVTVQYDPEDLSRVYVKDLNFPEPVMVYPVQ | -1.59
HMKELTPEQLQHNWNNLRQFIDVNFSGDRLGGLNKMYDYFEERMMFAPASGKQHYHNAFAGGYVEHVMHV | 0.209
HMKEPGFAPPVRALAAAPITVLAQVAGTNPGEIRARLRAAGYPVASDQQSVQSLVGGDLKAQIGVLNRILA | -0.286
HMKEQIKVPDLSNKTPEEAKKELNTLGLGARKGGEESSDTVEEGLITRQEPAAGEQVDKNTQILFYVSTGK | 0.901
HMKEQLLLGFKVRSLRGIDLGFVKFIEGSAFQSFLKTDLTIIPNVPNYVKKIDNVKKIILVDWESD | -2.8
HMKEQYTELDWDKVQVNDKVMIKDLNQQVTILSLPDKNNALYIQMGMIKTKVKKEKLAVYNPQLA | -2
HMKERVSWDERLERFAKHITENESLPYPSSKEYAWFEENKALYDAGELEPVRAQSFAFLLKIMRRMNL | -1.7

Sequence | soluble fraction (log2)
HMKETIIPELLQNELDKNSELNDKFNTFSPYKQREFIEYIITAKQEKTQISRLQKVILMILEGRGLNN | -1.89
HMKEVELENMIKAKGFKDAAVLVDERSVTVIVESERLAAGDSASIKELVSRGTGVDPQNVVII | -0.31
HMKEYPEVITTSRLNVRTGPGTGYQRLGTLDQNLRVLVLTRQQGWAQIRGMLNGETVIGWVNDYYLQAID | -2.54
HMKFINISIDKSGNLFINKKSIKFQDLKYNVVNLVDESKNLVVLNADENISHGYVISVLDVLRSIDGLKLA | -2.13
HMKFNEKQNEVRIAIMNFIIDNKRPFHMKQDGYDALEGITLSGRHEFQDILDVLHSRDGFSADEEGNINF | -1.09
HMKFPIITAKQDSDGKFYWAQTTDKGKTYTFILDGDGKKFPIGGTMPDVKINENGYWSVNGSSTGVLANDL | 0.368
HMKFSVEEQFKKSFPKNTYETFSETSLKGVYEVYNGKQVYYYLPVNDVLLLGSIVTKDGKNLTQESNSKK | -0.279
HMKGIVFTEFLDLVEERFGLEMVDAIISQSKLESKGVYTSIGTYSFSELLQLLQNLKIQTGISIDNLLLI | -0.961
HMKGKIYFFEEGVDRVGGVERVISTLANEFSKKYKVNVISFYKTRKETFFKYNSDIDITYLSK | 0.152
HMKGLDRATNKALLLKHIIDNGSTGTRFSELRQVLPSLTRGSISSLLIELRSEGKIHSIGVTRNARWYPTE | -1.79
HMKGLKERLLYFIEYKGLPVQMFEKIVGLSNAAVSKMGDNTRRSTIDKISKSFPELDVNWLLTGQGEMLSY | -0.942
HMKGPAFAKIDLTQLPAGLTSFLNTNAAGFKLDYAVAITKDSVIIEYHVGVTIGTAKKEFHLDPNFQLLP | -0.499
HMKGPLKDLGPDPVTGKSILVKDGKFGTYVTDGETNATLRRGDIVELLTLERGMELLAEKRARATQ | 0.0771
HMKGTVKFFNESKGFGFITEEGTNKEHFVHVSGLVDEIRENDEVEFDLQDGRKGLNAVNVRV | 0.363
HMKGVENLSDIDIQKALNNARANLSKNKAKLEQAGDDEKKKASALAMIQKWETTKKAIEEEIEARKKKSLN | -0.491
HMKHAIKEKIRNEYVHGYLNEEGYRVMPTLDELIRKYEVPASSTYRASSKEGWKKQKEAFLEHLRGEIDA | -0.492
HMKHFFIIAGGKIEDAFAIEVLKGFAEKTVIAADSGMEFLRRNEIVPQVIIGDFDSVSKETLEWFQKK | -0.751
HMKHKGILTTWNDDRGFGFITPKEGKEPVFVHISAFARGQGRPVLNASLTYRLVRDDQQRPRAEAVRL | -1.33
HMKHKHHIIPKHKGGTDHPDNLIELTVEQHAKAHWVEFMLDGREEDYWAWKGLEGVASKKDIIYALSKR | -0.0688
HMKHSEAIELGKRMLSQALQDVSLVLKKIPEERLQAVAAELNLKTPDELFEKIGLGERLAALVARRLLP | -0.851
HMKHTQTDEGELLSTLRTLFPNSSSSSLRKMLTQGRILVNQEVVHRAKHALQAGDEIEVLARQ | -0.13
HMKHVDLDNNERYIYGIIGSTKIHVDEVVEKSGMETKHVMAILTNLELKEAIKGIPGGFYLR | -2.02
HMKHVENLSDEKTIQAIQENPYMQYLLGLSKFTEKPVFVPELFVLIRKRLDQDFFNMLTLILAEADG | ≥ 1.04
HMKHYIDFIAEQLKTLTAIPSPSGYTKNATDYLMKLLQDMGYEPKLSRKGNVFVTLGGDGEPLVLAAHVD | 0.112
